From US20220017615A1 (SHANGHAI PHARMAEXPLORER, published 2022)

Columns and labels:
[1] = target: T1, cynomolgus CD47, on CHOK1-cCD47 stable cell line (cynomolgus); experiment: FACS CHOK1-cCD47; Ab 0 nM (background)
T1 construct: whole, on cells; check before use; also called CHOK1/cynoCD47; monkey-derived CD47
Method: (§1) The CHOK1-hCD47 stable cell lines and CHOK1-cCD47 stable cell lines were expanded to 90% confluence in a T-75 cell culture flask, the medium was exhausted, washed twice with HBSS buffer (Hanks balanced salt solution) (purchased from Invitrogen), and then treated and collected with enzyme-free cell dissociation solution (Versene solution: purchased from Life technology). The cells were washed twice with HBSS buffer. After counted, the cells were diluted with HBSS to 2×10⁶ cells per ml, added with 1% goat serum blocking solution, wherein the percentage was the mass percantage, incubated on ice for 30 minutes, and then washed twice with HBSS by centrifugation. […] The plate was washed 3 times with FACS buffer by centrifugation, added with 100 μl fixative solution [4% (v/v) Paraformaldehyde] per well to suspend the cells. 10 minutes later, it was washed twice with FACS buffer by centrifugation. The cells were suspended with 100 microliters of FACS buffer, FACS (FACS Calibur, purchased from BD) was used for detection and the results were analyzed.

[2] = target: T2, biotin-labeled CD47 extracellular domain protein (CD47-ECD) (UniProt Q08722 19-139, limits assumed, biotin-labeled (sites not given)); experiment: blocking ELISA, biotin-CD47-ECD on coated SIRPα-hFc; Ab 0.064 nM
T2 construct: extracellular domain; also called CD47 protein

[3] = target: T2, biotin-labeled CD47 extracellular …; experiment: blocking ELISA, biotin-CD47-ECD on coated SIRPα-hFc; Ab 200 nM
Method: (§2) The plate was sealed with plastic film and incubated at 4° C. overnight. The plate was washed twice with plate washing solution [PBS+0.01% (v/v) Tween20] on the next day, and blocking solution [PBS+0.01% (v/v) Tween20 +1% (w/w) BSA] was added to block it at room temperature for 2 hours. […] After incubation at 37° C. for 2 hours, the plate was washed three times with the plate washing solution [PBS+0.01% (v/v) Tween 20]. HRP (horseradish peroxidase) labeled avidin diluent (purchased from Sigma) was added as 100 microliters per well, and after the plate was incubated for 2 hours at 37° C., it was washed 3 times with washing solution [PBS+0.01% (v/v) Tween 20]. 100 μl of TMB substrate was added to each well. After incubated at room temperature for 30 minutes, the plate was added with 100 μl of stop solution (1.0N HCl) to each well.

[4] = target: T3, His-tagged CD47 recombinant protein, CD47-His (human, UniProt Q08722 19-141, limits assumed); experiment: ELISA on coated CD47-His; Ab 66.667 nM
T3 construct: it is not restated for CD47-His; also called human CD47-His protein; antigen CD47-His; not shown: His tag

[5] = target: T1, cynomolgus CD47, on CHOK1-cCD47 stable …; experiment: FACS CHOK1-cCD47; Ab 40 nM
Method: as §1

[6] = target: T4, human CD47, full length, on transfected cells (human, UniProt Q08722 19-323); experiment: FACS CHOK1-hCD47; Ab 200 nM
T4 construct: whole, on cells; also called CHOK1-hCD47
Method: as §1

[7] = target: T2, biotin-labeled CD47 extracellular …; experiment: blocking ELISA, biotin-CD47-ECD on coated SIRPα-hFc; Ab 8 nM
Method: as §2

[8] = target: T3, His-tagged CD47 recombinant protein, …; experiment: ELISA on coated CD47-His; Ab 0 nM (background)
Method: (§3) The plate was sealed with plastic film and incubated at 4° C. overnight. The plate was washed twice with plate washing solution [PBS+0.01% (v/v) Tween20] the next day, and blocking solution [PBS+0.01% (v/v) Tween20 +1% (w/w) BSA] was added to block it at room temperature for 2 hours. […] After incubation at 37° C. for 2 hours, the plates were washed three times with plate washing solution [PBS+0.01% (v/v) Tween 20]. HRP (horseradish peroxidase) labeled secondary antibody (purchased from Sigma) was added, incubated at 37° C. for 2 hours, and then washed three times with plate washing solution [PBS+0.01% (v/v) Tween 20]. 1000 of TMB substrate was added to each well. After incubated at room temperature for 30 minutes, the plate was added with 100 μl of stop solution (1.0N HCl) to each well.

[9] = target: T1, cynomolgus CD47, on CHOK1-cCD47 stable …; experiment: FACS CHOK1-cCD47; Ab 0.32 nM
Method: as §1

[10] = target: T2, biotin-labeled CD47 extracellular …; experiment: blocking ELISA, biotin-CD47-ECD on coated SIRPα-hFc; Ab 0.0128 nM
Method: as §2

[11] = target: T1, cynomolgus CD47, on CHOK1-cCD47 stable …; experiment: FACS CHOK1-cCD47; Ab 8 nM
Method: as §1

[12] = target: T2, biotin-labeled CD47 extracellular …; experiment: blocking ELISA, biotin-CD47-ECD on coated SIRPα-hFc; Ab 0 nM
Method: as §2

[13] = target: T4, human CD47, full length, on transfected …; experiment: FACS CHOK1-hCD47; Ab 0.064 nM
Method: as §1

[14] = target: T1, cynomolgus CD47, on CHOK1-cCD47 stable …; experiment: FACS CHOK1-cCD47; Ab 0.0128 nM
Method: as §1

[15] = target: T1, cynomolgus CD47, on CHOK1-cCD47 stable …; experiment: FACS CHOK1-cCD47; Ab 0.064 nM
Method: as §1

[16] = target: T2, biotin-labeled CD47 extracellular …; experiment: blocking ELISA, biotin-CD47-ECD on coated SIRPα-hFc; Ab 1.6 nM
Method: as §2

[17] = target: T2, biotin-labeled CD47 extracellular …; experiment: blocking ELISA, biotin-CD47-ECD on coated SIRPα-hFc; Ab 40 nM
Method: as §2

[18] = target: T4, human CD47, full length, on transfected …; experiment: FACS CHOK1-hCD47; Ab 40 nM
Method: as §1

[19] = target: T4, human CD47, full length, on transfected …; experiment: FACS CHOK1-hCD47; Ab 0.0128 nM
Method: as §1

[20] = target: T3, His-tagged CD47 recombinant protein, …; experiment: ELISA on coated CD47-His; Ab 0.107 nM
Method: as §3

[21] = target: T1, cynomolgus CD47, on CHOK1-cCD47 stable …; experiment: FACS CHOK1-cCD47; Ab 1.6 nM
Method: as §1

[22] = target: T3, His-tagged CD47 recombinant protein, …; experiment: ELISA on coated CD47-His; Ab 0.533 nM
Method: as §3

[23] = target: T4, human CD47, full length, on transfected …; experiment: FACS CHOK1-hCD47; Ab 0.32 nM
Method: as §1

[24] = target: T3, His-tagged CD47 recombinant protein, …; experiment: ELISA on coated CD47-His; Ab 0.021 nM
Method: as §3

[25] = target: T4, human CD47, full length, on transfected …; experiment: FACS CHOK1-hCD47; Ab 8 nM
Method: as §1

[26] = target: T1, cynomolgus CD47, on CHOK1-cCD47 stable …; experiment: FACS CHOK1-cCD47; Ab 200 nM
Method: as §1

[27] = target: T4, human CD47, full length, on transfected …; experiment: FACS CHOK1-hCD47; Ab 0 nM (background)
Method: as §1

[28] = target: T3, His-tagged CD47 recombinant protein, …; experiment: ELISA on coated CD47-His; Ab 0.004 nM
Method: as §3

[29] = target: T2, biotin-labeled CD47 extracellular …; experiment: blocking ELISA, biotin-CD47-ECD on coated SIRPα-hFc; Ab 0.32 nM
Method: as §2

[30] = target: T3, His-tagged CD47 recombinant protein, …; experiment: ELISA on coated CD47-His; Ab 13.333 nM
Method: as §3

[31] = target: T4, human CD47, full length, on transfected …; experiment: FACS CHOK1-hCD47; Ab 1.6 nM
Method: as §1

[32] = target: T3, His-tagged CD47 recombinant protein, …; experiment: ELISA on coated CD47-His; Ab 2.667 nM
Method: as §3

Row | mean fluorescence intensity [1] | OD450 nm of CD47 bound to SIRPα [2] | OD450 nm of CD47 bound to SIRPα [3] | OD450 nm [4] | mean fluorescence intensity [5] | mean fluorescence intensity [6] | OD450 nm of CD47 bound to SIRPα [7] | OD450 nm [8] | mean fluorescence intensity [9] | OD450 nm of CD47 bound to SIRPα [10] | mean fluorescence intensity [11] | OD450 nm of CD47 bound to SIRPα [12] | mean fluorescence intensity [13] | mean fluorescence intensity [14] | mean fluorescence intensity [15] | OD450 nm of CD47 bound to SIRPα [16] | OD450 nm of CD47 bound to SIRPα [17] | mean fluorescence intensity [18] | mean fluorescence intensity [19] | OD450 nm [20] | Binder | further results
1 | 72.4 | 2.77 | 0.07 | 2.95 | 13300 | 14600 | 0.1 | 0.05 | 2880 | 2.94 | 10600 | 2.95 | 541 | 245 | 288 | 0.32 | 0.08 | 15900 | 174 | 1.83 | 51E2F11 (antibody, V domains shown, Murine hybridoma antibody purified on protein G) VH: EVQLQQSGAELVKPGASVKLSCTASGFNIKDHYIHWMNQRTEQGLEWIGRIDPDDGETRYAPKFRGKATLTADTSSNTAYLQFSSLTSEDTAVYHCTRATTITRDWYFDVWGTGTTVTVSS VL: DIVMTQSQKFMSTSVGDRVSITCKASQNVRTSVAWYQQKPGQSPKALIYLASNRHTGIPDRFTGSGSGTDFTLTIRNVQSEDLADYFCLQHWDYPLTFGAGTKLELK | mean fluorescence intensity [21]: 7190; OD450 nm [22]: 2.95; mean fluorescence intensity [23]: 2000; OD450 nm [24]: 0.53; mean fluorescence intensity [25]: 12700; mean fluorescence intensity [26]: 9460; mean fluorescence intensity [27]: 22.6; OD450 nm [28]: 0.16; OD450 nm of CD47 bound to SIRPα [29]: 1.57; OD450 nm [30]: 2.97; mean fluorescence intensity [31]: 6460; OD450 nm [32]: 3
2 | 83.5 | 2.5 | 0.06 | 2.89 | 9760 | 9420 | 0.07 | 0.05 | 4550 | 2.79 | 13200 | 2.91 | 386 | 422 | 1450 | 0.18 | 0.06 | 9790 | 120 | 1.68 | 25E3B5 (antibody, V domains shown, Murine hybridoma antibody purified on protein G) VH: QVQLQQPGTALVRPGSSVKLSCKASGYTFTSYWMHWVRQRPIKGLEWIGNIDPSDSETHYNQRFKDKVTLTVDKSSNTAYMQLSSLTSEDSAVYYCARWKYHGIGAMDYWGQGTSVTVSS VL: DVQITQSPSYLAASPGETVTISCRTNRNISKFLAWYQEKPGKTNKLLIYSGSTLHSGIPSRFSGSGSGTDFTLTISRLEPEDFAMYYCQQHNEYPWSFGGGTKLEIK | mean fluorescence intensity [21]: 7400; OD450 nm [22]: 2.91; mean fluorescence intensity [23]: 1560; OD450 nm [24]: 0.46; mean fluorescence intensity [25]: 7020; mean fluorescence intensity [26]: 7040; mean fluorescence intensity [27]: 22.9; OD450 nm [28]: 0.14; OD450 nm of CD47 bound to SIRPα [29]: 1.06; OD450 nm [30]: 2.96; mean fluorescence intensity [31]: 4430; OD450 nm [32]: 3.02
3 | 81.2 | 2.29 | 0.07 | 2.9 | 13400 | 6550 | 0.08 | 0.05 | 3310 | 2.81 | 16400 | 2.9 | 759 | 343 | 998 | 0.16 | 0.07 | 9520 | 233 | 2.61 | 20H4G5 (antibody, V domains shown, Murine hybridoma antibody purified on protein G) VH: QVQLQQPGAELVRPGSSVRLSCVTSGYTFTSHWMHWVKQGPIKGLEWIGNIDPSDSETHYNQKFKDKATLTVDKSSSTAYMQLSRLTSDDSAVYYCARWRHLGIGAMDYWGQGTSVIVSS VL: DVQITQSPSYLAASPGETITINCRASKNISKFLAWYQAKPGKSNNLLIYSGSTLQSGIPSRFSGSGSGTDFTLTISRLEPEDFAMYYCQQHNEYPWTFGGGTKLEIK | mean fluorescence intensity [21]: 9450; OD450 nm [22]: 3.02; mean fluorescence intensity [23]: 2980; OD450 nm [24]: 1.15; mean fluorescence intensity [25]: 8470; mean fluorescence intensity [26]: 16500; mean fluorescence intensity [27]: 23.1; OD450 nm [28]: 0.31; OD450 nm of CD47 bound to SIRPα [29]: 0.68; OD450 nm [30]: 2.94; mean fluorescence intensity [31]: 6160; OD450 nm [32]: 3.01
